In the nanobody polyreactivity screen of Harvey et al. (2022):

Test: yeast display, Sf9 membrane polyspecificity reagent, FACS + sequencing; frameworks hold sequencing errors
Procedure, shortened: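 Galactose-induced (36–48 hours) yeast carrying a synthetic nanobody display library were exposed to 10% biotinylated, detergent-solubilized Sf9 membrane reagent at 4 °C for 1 hour. FACS followed streptavidin microbead enrichment, using low and high (top ~1%) gates for expression (anti-HA) and reagent binding (streptavidin). Colony PCR, MiSeq 2 × 250 sequencing and CDR-length filtering followed. Labels for polyreactivity reflect the gate of origin.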

**Q.** For “QVQLVESGGGLVQAGGSLRLSCSASGSIFGGYAMGWYRQAPGKEREFVAAISRRGASTYYADSVKGRYTISRDNAKNTVYLQMNSLKPEDTAVYYCNARAYGRIDGLSATYGYWGQGTQVTVSS”, which “polyreactivity (PSR sort gate)” value is on record?
**A.** high polyreactivity

**Q.** For “QVQLVESGGGLVQAGGSLRLSCSASGSIFKIYAMGWYRQAPGKERELVASITGSGGSTYYADSVKGRFTISRDNAKNTVYLQMNSLKPEDTAVYYCAAAVLGSSKSEVDPDRPEYYYWGQGTQVTVSS”, which “polyreactivity (PSR sort gate)” value is on record?
**A.** low polyreactivity

**Q.** For “QVQLVESGGGLVQAGGSLRLSCSASGSIFRVYGMGWYRQAPGKERELVAAITWSGGSTYYADSVKGRFTISRDNAQNTVYLQMNSLKPEDTAVYYCAARARPRYYRQPYDYLGQGTQVTVSS”, which “polyreactivity (PSR sort gate)” value is on record?
**A.** high polyreactivity

**Q.** With “QVQLVESGGGLVQAGGSLRLSCSASGSIFSNAMGWYRQAPGKERELVAAITGRGGRTYYADSVKGRFTITRDNAKNSVYLQMNSLKPEDTAVYYCARDSPWSSRYRYRAFDYWGQGTQVTVSS” as the sequence, how does the “polyreactivity (PSR sort gate)” value read?
**A.** high polyreactivity

**Q.** Which “polyreactivity (PSR sort gate)” value does the source give for “QVQLVESGGGLVQAGGSLRLSCSASGSNFYTNAMGWYRQAPGKERELVAVITASGGSTYYADSVKGRFTISRDYAKNTVYLLMNSLKPEDTAVYYCASDPVFNYDYWGQGTQVTVSS” here?
**A.** low polyreactivity

**Q.** With “QVQLVESGGGLVQAGGSLRLSCSASGSTFAYYTMGWYRQAPGKERELVAAISRSGGSTYYSDSVKGRFTISRDNAKNTVYLQMNSLKPEDTAVYYCAADKHYAVIPYEYWGQVTQVTVSS” as the sequence, how does the “polyreactivity (PSR sort gate)” value read?
**A.** high polyreactivity

**Q.** With “QVQLVESGGGLVQAGGSLRLSCSASGSTFDTYAMGWYRKAPGKERELVAAISRSGGSTYYADSVKWRFTISRDNAKNTVYLQMNSLKPEDTAVYFCNALSGDLAGDYWGQGTQVTVSS” as the sequence, how does the “polyreactivity (PSR sort gate)” value read?
**A.** high polyreactivity

**Q.** For “QVQLVESGGGLVQAGGSLRLSCSASGSTFERYAMGWYRQAPGKERELVAAISAIGDSTYYADSVKGRFTISRDNANNTVYLQMNSLKPEDTAVYYCAAKTSDYGYYYWGQGTQVTVSS”, which “polyreactivity (PSR sort gate)” value is on record?
**A.** high polyreactivity

**Q.** For “QVQLVESGGGLVQAGGSLRLSCSASGSTFKYNAKGWYIQETGKEWELVAYITRGGHTNYAVSVKGRFTISRDNAKNTVYLQMNRLKPEDTAVYYCAAVRPSVGFRGAWYPQYDYWGQGTQVTVSS”, which “polyreactivity (PSR sort gate)” value is on record?
**A.** low polyreactivity

**Q.** For “QVQLVESGGGLVQAGGSLRLSCSASGSTFSDNVMGWYRQAPGKERELVAGITRSGGRTYYADSVKGRFTISRDNAKNTVYLQMNSLKPEDTAVYYCAAASSGEYGYWGQGTQVTVSS”, which “polyreactivity (PSR sort gate)” value is on record?
**A.** low polyreactivity

**Q.** With “QVQLVESGGGLVQAGGSLRLSCSASGSTFVVYAMGWSRQAPGKERELVAAISESGSSTYYADSVKGRFTISRDNAKNTVYLQMNSLKPEDTAVYYCNALYYDWHPEYQVIFSDFYYWGQGTQVTVSS” as the sequence, how does the “polyreactivity (PSR sort gate)” value read?
**A.** low polyreactivity

**Q.** For “QVQLVESGGGLVQAGGSLRLSCSASGSTFWYYAMGWYRKAPGKERELVAAITRGASTNYADSVKGRFTISRDNAKNTVYLQMISLIPEDTAVYYCAAGPARWKGYYWGQGTQVTVSS”, which “polyreactivity (PSR sort gate)” value is on record?
**A.** high polyreactivity

**Q.** For “QVQLVESGGGLVQAGGSLRLSCSASGSTFYLYAMGWYRQAPGKEREFVADISLSGDSTYYADSVKGRFTISRDNAKNTVYLQMNSLKPEDTAVYYCAADVFYPGPWSYEYWGQGTQVTVSS”, which “polyreactivity (PSR sort gate)” value is on record?
**A.** low polyreactivity

**Q.** For “QVQLVESGGGLVQAGGSLRLSCSASGYIFGRNSMGWYRTAHGKERELVAVISSRGSRTYYADSVKGRFTISRDNAKNTVYLQMNSLKPEDTAVYYCNAVLWWDWVYDFYYWGQGNQVTVSS”, which “polyreactivity (PSR sort gate)” value is on record?
**A.** high polyreactivity

**Q.** With “QVQLVESGGGLVQAGGSLRLSCSASGYIYQYNSMGWYRQAPGKERELVAANSRGGRTNYADSVKGRFTISRDNAKNTVYLQMNSLKPEDTEVYYCAAKRPWGYYPWSTQTGDYWGQGTQVTVSS” as the sequence, how does the “polyreactivity (PSR sort gate)” value read?
**A.** high polyreactivity

**Q.** Which “polyreactivity (PSR sort gate)” value does the source give for “QVQLVESGGGLVQAGGSLRLSCSASRSTFYGNAMGWYRQAPGKERELVAAISSGDITYYADSVKGRFTISRDNAKNTVYLQMNSLKPEDTAVYYCATDYGYSWYDYWGQGTQVTVSS” here?
**A.** low polyreactivity

**Q.** With “QVQLVESGGGLVQAGGSLRLSCSAYGSIFYGYAMGWYRQAPGKERELVAAITWSGGSTYYADSVKGRFTISRDIAKNTVYLQMNSLKPEDTAVYYCNALWVWYRGSSVRWVGGYDYWGQGTQVTVSS” as the sequence, how does the “polyreactivity (PSR sort gate)” value read?
**A.** high polyreactivity
